# Results as given in paper PMC5397608 (Journal of Molecular Biology, 2017).
# Numbering of substitutions follows the chain as printed. Numbers in names are those of the source.
# B1: mAb2_SL50K (antibody, V domains shown)
# VH: EVQLVESGGGLVQPGGSLRLSCAASGFTISDYWIHWVRQAPGKGLEWVAGITPAGGYTYYADSVKGRFTISADTSKNTAYLQMNSLRAEDTAVYYCARFVFFLPYAMDYWGQGTLVTVSS
# VL: DIQMTQSPSSLSASVGDRVTITCRASQDVSTAVAWYQQKPGKAPKLLIYKASFLYSGVPSRFSGSGSGTDFTLTISSLQPEDFATYYCQQSYTTPPTFGQGTKVEIK
# notes: as the heavy chain variable region of m1 (PDB 2FJF); constant regions of an IgG1 isotype, already in the expression vector; as the light chain variable region of m1 (PDB 2FJF), with the stated change; light chain constant region from the expression vector; IgG1; also called S50K in the light chain; source: CHO K1, transiently transfected, purified (protein A)
# B2: mAb2_SL50D (antibody, V domains shown)
# VH: B1 VH
# VL: B1 VL with K50D
# notes: as the heavy chain variable region of m1 (PDB 2FJF); constant regions of an IgG1 isotype, already in the expression vector; as the light chain variable region of m1 (PDB 2FJF), with the stated change; light chain constant region from the expression vector; IgG1; source: CHO K1, transiently transfected, purified (protein A)
# B3: mAb2_SL50K_SH21R_SH85R (antibody, V domains shown)
# VH: B1 VH with S21R, S85R
# VL: B1 VL
# notes: as the heavy chain variable region of m1 (PDB 2FJF), with the stated changes; constant regions of an IgG1 isotype, already in the expression vector; as the light chain variable region of m1 (PDB 2FJF), with the stated change; light chain constant region from the expression vector; IgG1; also called Variant 7; source: CHO K1, transiently transfected, purified (protein A)
# B4: mAb2_SL52R_SH21R_SH85R_FH101P (antibody, V domains shown)
# VH: B1 VH with S21R, S85R, F101P
# VL: B1 VL with K50S, S52R
# notes: as the heavy chain variable region of m1 (PDB 2FJF), with the stated changes; constant regions of an IgG1 isotype, already in the expression vector; as the light chain variable region of m1 (PDB 2FJF), with the stated change; light chain constant region from the expression vector; IgG1; also called mAb2 FH101P SL52R SH21R SH85R; source: CHO K1, transiently transfected, purified (protein A)
# B5: mAb2_FH101P (antibody, V domains shown)
# VH: B1 VH with F101P
# VL: B1 VL with K50S
# notes: as the heavy chain variable region of m1 (PDB 2FJF), with the stated change; constant regions of an IgG1 isotype, already in the expression vector; as the light chain variable region of m1 (PDB 2FJF); light chain constant region from the expression vector; IgG1; source: CHO K1, transiently transfected, purified (protein A)
# B6: mAb2_VH100R (antibody, V domains shown)
# VH: B1 VH with V100R
# VL: B1 VL with K50S
# notes: as for B5
# B7: mAb2_SL52R_FH101P (antibody, V domains shown)
# VH: B1 VH with F101P
# VL: B1 VL with K50S, S52R
# notes: as the heavy chain variable region of m1 (PDB 2FJF), with the stated change; constant regions of an IgG1 isotype, already in the expression vector; as the light chain variable region of m1 (PDB 2FJF), with the stated change; light chain constant region from the expression vector; IgG1; also called mAb2 FH101P SL52R; source: CHO K1, transiently transfected, purified (protein A)
# B8: mAb2_SL50K_FH101P (antibody, V domains shown)
# VH: B1 VH with F101P
# VL: B1 VL
# notes: as the heavy chain variable region of m1 (PDB 2FJF), with the stated change; constant regions of an IgG1 isotype, already in the expression vector; as the light chain variable region of m1 (PDB 2FJF), with the stated change; light chain constant region from the expression vector; IgG1; also called mAb2 FH101P SL50K; variant 8; source: CHO K1, transiently transfected, purified (protein A)
# B9: mAb2_SL50K_SH21R_SH85R_FH101P (antibody, V domains shown)
# VH: B1 VH with S21R, S85R, F101P
# VL: B1 VL
# notes: as the heavy chain variable region of m1 (PDB 2FJF), with the stated changes; constant regions of an IgG1 isotype, already in the expression vector; as the light chain variable region of m1 (PDB 2FJF), with the stated change; light chain constant region from the expression vector; IgG1; also called mAb2 FH101P SL50K SH21R SH85R; source: CHO K1, transiently transfected, purified (protein A)
# Target: T1, recombinant human Vascular Endothelial Growth Factor a (Homo sapiens, UniProt P15692-4, fluorescently labeled with Alexa-647)
# T1 construct: human VEGFa, UniProt ID P15692, aa 27-191 as printed; the isoform is my reading of the limits 27-191; also called rhVEGFa; recombinant human VEGFa; source: recombinant
# T1 sequence (P15692 other isoform, or with tags, fused parts or gaps): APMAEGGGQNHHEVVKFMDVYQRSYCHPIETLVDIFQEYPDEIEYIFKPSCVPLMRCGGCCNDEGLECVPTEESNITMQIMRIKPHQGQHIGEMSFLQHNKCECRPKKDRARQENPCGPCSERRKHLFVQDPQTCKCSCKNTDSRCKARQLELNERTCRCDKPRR
# Test: MST; Alexa-647-labelled rhVEGFa constant at 1 nM in solution, mAb2 WT or variants in varying concentrations; 295 K; 25 mM sodium citrate pH 6.0, 125 mM NaCl, 0.05% Tween 20; triplicates; NanoTemper Monolith NT.115
# Settings: both partners purified
Kd,binding result,Binder
8.3 ± 1.4 nM,–,B1
4.4 ± 1.3 nM,–,B2
57.1 ± 6.2 nM,–,B3
–,no binding,B4
–,no binding,B5
–,no binding,B6
–,no binding,B7
–,no binding,B8
–,no binding,B9
